Tests used:
Assay in all cases: IEDB peptide-MHC binding, purified MHC/competitive/radioactivity; filed as Kd, often an IC50 or EC50 that approximates it; ≥ and ≤ were set here for values at or beyond the usual limits of such assays
HLA-A*33:01 = molecular target: HLA-A*33:01
HLA-A*31:01 = molecular target: HLA-A*31:01
HLA-A*03:01 = molecular target: HLA-A*03:01
HLA-A*11:01 = molecular target: HLA-A*11:01
HLA-A*68:01 = molecular target: HLA-A*68:01
HLA-A*02:03 = details: source organism: Dengue virus 3 Martinique/1243/1999
HLA-A*02:06 = details: source organism: Dengue virus 1 Singapore/S275/1990
[1] = source organism: Lymphocytic choriomeningitis virus (strain WE)
[2] = source organism: Mammarenavirus machupoense
[3] = source organism: Vaccinia virus WR
[4] = source organism: SARS coronavirus Tor2
[5] = source organism: Lassa virus Josiah
[6] = source organism: Mammarenavirus lassaense

| Sequence | Kd (HLA-A*33:01; [3]) [nM] | Kd (HLA-A*31:01; [3]) [nM] | Kd (HLA-A*03:01; [3]) [nM] | Kd (HLA-A*11:01; [3]) [nM] | Kd (HLA-A*68:01; [3]) [nM] | other results |
| --- | --- | --- | --- | --- | --- | --- |
| SRILFAQEK |  |  |  |  |  | Kd (HLA-A*33:01; [1]): ≥ 77700 nM; Kd (HLA-A*31:01; [1]): ≥ 38700 nM; Kd (HLA-A*03:01; [1]): 15700 nM; Kd (HLA-A*11:01; [1]): 773 nM; Kd (HLA-A*68:01; [1]): 7330 nM |
| SSFDYCGMDH |  |  |  |  |  | Kd (HLA-A*33:01; [2]): ≥ 48900 nM; Kd (HLA-A*31:01; [2]): 10600 nM; Kd (HLA-A*03:01; [2]): 13800 nM; Kd (HLA-A*11:01; [2]): 6580 nM; Kd (HLA-A*68:01; [2]): 3400 nM |
| SSKGNCAIK | 17700 | 2150 | 6770 | 2150 | 3480 |  |
| SSNKDPITVY | ≥ 70000 | ≥ 50900 | ≥ 70100 | 1880 | ≥ 42800 |  |
| SSPPIPMSR | 15500 | 10400 | 7270 | 406 | 764 |  |
| SSSIDVDKR | ≥ 35000 | 8950 | ≥ 78000 | 4750 | 146 |  |
| STCSAVTDR | 1390 | 119 | ≥ 31000 | 31.2 | 55.1 |  |
| STDNAVYQCR | 2890 | 427 | 5720 | 35.4 | 81.3 |  |
| STSLSEEFFH |  |  |  |  |  | Kd (HLA-A*33:01; [2]): ≥ 64800 nM; Kd (HLA-A*31:01; [2]): 14700 nM; Kd (HLA-A*03:01; [2]): ≥ 43100 nM; Kd (HLA-A*11:01; [2]): 4310 nM; Kd (HLA-A*68:01; [2]): 13200 nM |
| SVLCVKKFYK | 12.2 | 0.785 | 1.14 | 0.302 | 1.01 |  |
| SVNEYHMLK | 85.7 | 6.92 | 6.1 | 2.23 | 2.24 |  |
| SVYAWERKK |  |  |  |  |  | Kd (HLA-A*33:01; [4]): ≥ 38700 nM; Kd (HLA-A*31:01; [4]): 1940 nM; Kd (HLA-A*03:01; [4]): 134 nM; Kd (HLA-A*11:01; [4]): 230 nM; Kd (HLA-A*68:01; [4]): 5320 nM |
| TFKIDAVRYY | ≥ 43400 | ≥ 20700 | ≥ 70100 | 12100 | 1430 |  |
| THLGPQFCK |  |  |  |  |  | Kd (HLA-A*33:01; [5]): ≥ 77700 nM; Kd (HLA-A*31:01; [5]): 15900 nM; Kd (HLA-A*03:01; [5]): 880 nM; Kd (HLA-A*11:01; [5]): 284 nM; Kd (HLA-A*68:01; [5]): 338 nM |
| TISKDNLER | 490 | 175 | 2620 | 170 | 18.1 |  |
| TLGSFTWFPH |  |  |  |  |  | Kd (HLA-A*33:01; [6]): 13400 nM; Kd (HLA-A*31:01; [6]): 782 nM; Kd (HLA-A*03:01; [6]): 428 nM; Kd (HLA-A*11:01; [6]): 4990 nM; Kd (HLA-A*68:01; [6]): ≥ 25700 nM |
| TLIMIGSNA |  |  |  |  |  | Kd (HLA-A*02:03): 32 nM |

| Sequence | Kd (HLA-A*33:01; [3]) [nM] | Kd (HLA-A*31:01; [3]) [nM] | Kd (HLA-A*03:01; [3]) [nM] | Kd (HLA-A*11:01; [3]) [nM] | Kd (HLA-A*68:01; [3]) [nM] | other results |
| --- | --- | --- | --- | --- | --- | --- |
| TMLDVDLRPA |  |  |  |  |  | Kd (HLA-A*02:06): 16.9 nM |
| TVWEVQGYK |  |  |  |  |  | Kd (HLA-A*33:01; [4]): 129 nM; Kd (HLA-A*31:01; [4]): 47.7 nM; Kd (HLA-A*03:01; [4]): 2.91 nM; Kd (HLA-A*11:01; [4]): 0.757 nM; Kd (HLA-A*68:01; [4]): 0.913 nM |
| VAALDGTFQR | 675 | 124 | ≥ 34100 | 681 | 40.1 |  |
| VFTDISMSLY | 6760 | 11600 | 8240 | 2290 | 2300 |  |
| VIGLSGDSER | 1180 | 8890 | ≥ 63700 | 15900 | 182 |  |
| VSLKKTNDK | ≥ 54800 | 8770 | 193 | 32.1 | 19400 |  |
| VSLLRSTSQK |  |  |  |  |  | Kd (HLA-A*33:01; [4]): 2540 nM; Kd (HLA-A*31:01; [4]): 175 nM; Kd (HLA-A*03:01; [4]): 11.6 nM; Kd (HLA-A*11:01; [4]): 172 nM; Kd (HLA-A*68:01; [4]): 6330 nM |
| VSMTYLYNKY | ≥ 70000 | ≥ 28900 | 15400 | 96.5 | ≥ 70200 |  |
| VTLADAGFMK |  |  |  |  |  | Kd (HLA-A*33:01; [4]): 11700 nM; Kd (HLA-A*31:01; [4]): 1200 nM; Kd (HLA-A*03:01; [4]): 33 nM; Kd (HLA-A*11:01; [4]): 3.92 nM; Kd (HLA-A*68:01; [4]): 135 nM |
| VVDTFISYNR | 101 | 25.2 | 2540 | 343 | 80.5 |  |
| WIQYDKHCY | ≥ 60400 | 5660 | 5820 | 39.5 | 2980 |  |
| WVSLKKTNDK | ≥ 70000 | ≥ 32700 | 2090 | 608 | ≥ 45500 |  |
| YCSTNHLSK |  |  |  |  |  | Kd (HLA-A*33:01; [2]): ≥ 77700 nM; Kd (HLA-A*31:01; [2]): ≥ 77900 nM; Kd (HLA-A*03:01; [2]): 19200 nM; Kd (HLA-A*11:01; [2]): 14900 nM; Kd (HLA-A*68:01; [2]): ≥ 23100 nM |
| YITIQDRPR | 187 | 138 | ≥ 78000 | ≥ 44800 | 26.2 |  |
| YIVHSYLKNY | ≥ 70000 | ≥ 70000 | ≥ 70100 | ≥ 69800 | ≥ 70200 |  |
| YLIHDNIMY | ≥ 77700 | ≥ 77900 | 10600 | 14900 | ≥ 26900 |  |

— the Immune Epitope Database (IEDB)
